Laboratory results reported in patent US20250051437A1 (University of California, published 2025).
Where no end group is shown, it is not given here.

Assays:
[1] = target: T1, human CDH17-mGFP fusion protein overexpressed on HEK293T cells (clone G11) (human, UniProt Q12864 23-832); test: KinExA, cell-based, HEK293T human CDH17mGFP G11 (same value as r12)
T1 construct: also called HEK293T CDH17mGFP Clone G11; HEK293T Human CDH17mGFP G11; not shown: mGFP fluorescent protein fused to CDH17
Procedure: The cell-based antibody affinity (KD) of the anti-CDH17 antibodies was measured by KinExA 4000 (Sapidyne Instrument, Boise, Idaho). Briefly, HEK293T overexpressing CDH17-fluorescent protein fusion (i.e., human CDH17-mGFP, monkey CDH17-mGFP, mouse CDH17-mGFP or rat CDH17-mGFP) were detached with Versene and equilibrated with either 50 pM, 200 pM, 20 nM, or 50 nM antibody in 2% FBS/DMEM at 4° C. overnight. The cell concentration started at 5×10⁶ cells/mL or 1×10⁷ cells/mL and 2-fold serial dilutions were performed up to 10 points. The next day, the cells were centrifuged at 1500 rpm for 10 min and the supernatants were saved. […] In contrast, while the humanized anti-CDH17 antibody, 07-0653-h43, fails to bind mouse CDH17 protein, it binds rat CDH17 protein equally well as to human and monkey CDH17 protein such that its Kp is less than about 1 nM for human, monkey and rat CDH17 proteins with overlapping 95% confidence interval values.

[2] = target: T2, biotinylated 15-mer peptide 18 of the CDH17 ECD peptide scan (human, also: biotin label, position not given here); test: titration ELISA on biotinylated peptide captured on streptavidin plates
T2 peptide: THNLQVAALDANGII
Procedure: (§1) For the ELISA, 1 μl of each biotinylated peptide plus 99 μl of peptide coating buffer (40% DMSO and 0.05% Tween20 in PBS) was added to a streptavidin-coated microtiter plate well. The plate was incubated overnight at 4° C. without shaking. The plate was then washed 4 times with 300 μl washing buffer (PBS with 0.05% Tween20). 200 μl blocking buffer (PBS with 400 μM biotin and 20% sucrose) was added to each well and the plate incubated for 30 min at room temperature without shaking. After 3 times washing with washing buffer, 300 μl of SuperBlock T20 (TBS) Blocking Buffer (Thermo Scientific, #37536) was applied per well and incubated at room temperature for 1 hour. […]

[3] = target: T3, biotinylated 15-mer peptide 20 of the CDH17 ECD peptide scan (human, also: biotin label, position not given here); test: as above
T3 peptide: LDANGIIVEGPVPIT
Procedure: as §1

[4] = target: T4, biotinylated 15-mer peptide 19 of the CDH17 ECD peptide scan (human, also: biotin label, position not given here); test: as above
T4 peptide: QVAALDANGIIVEGP
Procedure: as §1

Peptide 8 = target: T5, Peptide 8 (also: biotin label, position not given here); test: titration ELISA, biotinylated peptide on streptavidin-coated plate
T5 construct: LDANGII with the third residue A changed to G; also called LDGNGII
T5 peptide: LDGNGII

Peptide 6 = target: T6, Peptide 6 (also: biotin label, position not given here); test: as above
T6 construct: LDANGII with the sixth residue I changed to A; also called LDANGAI
T6 peptide: LDANGAI

Peptide 4 = target: T7, Peptide 4 (also: biotin label, position not given here); test: as above
T7 construct: LDANGII with the fourth residue N changed to A; also called LDAAGII
T7 peptide: LDAAGII

Peptide 7 = target: T8, Peptide 7 (also: biotin label, position not given here); test: as above
T8 construct: LDANGII with the seventh residue I changed to A; also called LDANGIA
T8 peptide: LDANGIA

Peptide 2 = target: T9, Peptide 2 (also: biotin label, position not given here); test: as above
T9 construct: LDANGII with the first residue L changed to A; also called ADANGII
T9 peptide: ADANGII

Peptide 5 = target: T10, Peptide 5 (also: biotin label, position not given here); test: as above
T10 construct: LDANGII with the fifth residue G changed to A; also called LDANAII
T10 peptide: LDANAII

Peptide 1 = target: T11, Peptide 1 (also: biotin label, position not given here); test: as above
T11 construct: also called Original 7-mer peptide; LDANGII
T11 peptide: LDANGII

Peptide 3 = target: T12, Peptide 3 (also: biotin label, position not given here); test: as above
T12 construct: LDANGII with the second residue D changed to A; also called LAANGII
T12 peptide: LAANGII

[5] = target: T13, rat CDH17 fused to moxGFP, overexpressed on HEK293T cells (rat, UniProt P55281 22-827); test: flow cytometry (BD C6) on HEK293T Rat CDH17 moxGFP cells
T13 construct: whole, on cells; also called HEK293T Rat CDH17mGFP mass pop; rat CDH17-moxGFP
Procedure: To determine relative antigen binding strengths of the humanized antibodies, FACS assays were carried out as essentially described in Example 1. […] Using a BD Biosciences Accuri™ C6 Flow Cytometer (San Jose, CA), antibody binding based on Alexa Fluor® 647 fluorescence was measured in the FL4-H channel and fusion protein overexpression based on GFP fluorescence was measured in the FL1-H channel.

[6] = target: T14, human cadherin-17 (CDH17), endogenously expressed on human cancer cell lines (LS513, SNU-C1, PaTu8988s, … (human, UniProt Q12864 23-832)); test: flow cytometry (iQue) on LS513 cells, 0.2 µg Ab
T14 construct: also called LS513 (Colon, CDH17+); HPAF2

[7] = target: T1, human CDH17-mGFP fusion protein …; test: flow cytometry on HEK293T human CDH17mGFP G11, 20 µg/ml

T13 sequence (P55281 22-827): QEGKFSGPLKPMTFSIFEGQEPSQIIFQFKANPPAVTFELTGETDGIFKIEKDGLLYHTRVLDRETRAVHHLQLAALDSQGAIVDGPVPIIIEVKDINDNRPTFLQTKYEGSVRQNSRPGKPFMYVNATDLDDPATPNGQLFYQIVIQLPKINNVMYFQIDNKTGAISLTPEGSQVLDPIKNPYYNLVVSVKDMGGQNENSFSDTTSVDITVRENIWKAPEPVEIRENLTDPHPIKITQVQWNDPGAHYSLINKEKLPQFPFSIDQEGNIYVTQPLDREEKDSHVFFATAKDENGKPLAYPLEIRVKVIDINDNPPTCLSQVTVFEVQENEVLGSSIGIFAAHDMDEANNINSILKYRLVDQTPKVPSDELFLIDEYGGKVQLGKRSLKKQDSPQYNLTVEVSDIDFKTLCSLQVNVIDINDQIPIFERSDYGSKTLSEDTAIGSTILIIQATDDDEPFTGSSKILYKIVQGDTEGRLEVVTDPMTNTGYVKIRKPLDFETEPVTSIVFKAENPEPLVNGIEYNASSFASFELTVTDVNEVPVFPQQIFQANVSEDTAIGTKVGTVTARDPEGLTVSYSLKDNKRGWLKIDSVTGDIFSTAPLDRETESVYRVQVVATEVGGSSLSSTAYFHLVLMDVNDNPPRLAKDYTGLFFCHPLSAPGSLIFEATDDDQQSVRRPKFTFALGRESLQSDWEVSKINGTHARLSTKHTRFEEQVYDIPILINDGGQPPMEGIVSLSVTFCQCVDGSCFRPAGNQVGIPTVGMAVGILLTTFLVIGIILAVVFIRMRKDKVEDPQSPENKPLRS

B1: humanized anti-CDH17 antibody 07-0663-h7 (antibody, human IgG1, kappa, V domains shown)
VH: QVQLVQSGAEVKKPGSSVKISCKVSGYTFTDHTIHWMRQAPGQGLEWIGYIFPRDDIVVYAQKFQGRATLTADKSTSTAYMELSSLRSEDTAVYYCARPPYYYSRNFYFDYWGQGTTLTVSS
VL: DIQMTQSPSSLSASVGDRVTITCRVSSIISSSKLHWYQQKPGKAPKPLIYGTSTLASGVPSRFSGSGSGTDYTLTISSLQPEDFATYYCQQWSNYPFTFGQGTKLEIKR
notes: Human IgG1 / kappa
Kd [1]: 152 pM | binding result [2]: binds | binding result [3]: binds | binding result [4]: binds | ELISA reading at 1500 ng/ml antibody, lower of two rows (Peptide 8): 2.14 | ELISA reading at 1500 ng/ml antibody, upper of two rows (Peptide 8): 2.1 | ELISA reading at 1500 ng/ml antibody, lower of two rows (Peptide 6): 0.0357 | ELISA reading at 1500 ng/ml antibody, upper of two rows (Peptide 6): 0.0371 | binding result (Peptide 6): no binding (tested: 1500 ng/ml) | ELISA reading at 1500 ng/ml antibody, lower of two rows (Peptide 4): 0.038 | ELISA reading at 1500 ng/ml antibody, upper of two rows (Peptide 4): 0.0379 | binding result (Peptide 4): no binding (tested: 1500 ng/ml) | ELISA reading at 1500 ng/ml antibody, lower of two rows (Peptide 7): 2.74 | ELISA reading at 1500 ng/ml antibody, upper of two rows (Peptide 7): 2.8 | ELISA reading at 1500 ng/ml antibody, lower of two rows (Peptide 2): 2.71 | ELISA reading at 1500 ng/ml antibody, upper of two rows (Peptide 2): 2.65 | ELISA reading at 1500 ng/ml antibody, lower of two rows (Peptide 5): 0.0383 | ELISA reading at 1500 ng/ml antibody, upper of two rows (Peptide 5): 0.0394 | binding result (Peptide 5): no binding (tested: 1500 ng/ml) | ELISA reading at 1500 ng/ml antibody, lower of two rows (Peptide 1): 2.76 | ELISA reading at 1500 ng/ml antibody, upper of two rows (Peptide 1): 3.1 | ELISA reading at 1500 ng/ml antibody, lower of two rows (Peptide 3): 0.0369 | ELISA reading at 1500 ng/ml antibody, upper of two rows (Peptide 3): 0.0377 | binding result (Peptide 3): no binding (tested: 1500 ng/ml) | binding result [5]: no binding (tested: 1 µg) | Antibody Binding Activity by Flow iQue [6]: 2.24e+06 | Cross Reactivity by Flow [7]: 57600
